Source: article PMC3404820

Target: amphiphilic diblock polypeptide (ADP) derived from elastin-mimetic sequences, unlabeled
Assay: dynamic light scattering

stoichiometry N (chains per micelle): 106
B1: amphiphilic diblock polypeptide (ADP) derived from elastin-mimetic sequences, unlabeled (protein)
chain: VPGVGVPGEGVPGVGVPGEGVPGVGVPGVGVPGEGVPGVGVPGEGVPGVGVPGVGVPGEGVPGVGVPGEGVPGVGVPGVGVPGEGVPGVGVPGEGVPGVGVPGVGVPGEGVPGVGVPGEGVPGVGVPGVGVPGEGVPGVGVPGEGVPGVGVPGVGVPGEGVPGVGVPGEGVPGVGVPGVGVPGEGVPGVGVPGEGVPGVGVPGVGVPGEGVPGVGVPGEGVPGVGVPGVGVPGEGVPGVGVPGEGVPGVGIPGVGIPGVGVPGYGIPGVGIPGVGIPGVGIPGVGVPGYGIPGVGIPGVGIPGVGIPGVGVPGYGIPGVGIPGVGIPGVGIPGVGVPGYGIPGVGIPGVGIPGVGIPGVGVPGYGIPGVGIPGVGIPGVGIPGVGVPGYGIPGVGIPGVGIPGVGIPGVGVPGYGIPGVGIPGVGIPGVGIPGVGVPGYGIPGVGIPGVGIPGVGIPGVGVPGYGIPGVGIPGVGIPGVGIPGVGVPGYGIPGVGIPGVGIPGVGIPGVGVPGYGIPGVGIPGVGIPGVGIPGVGVPGYGIPGVGIPGVGIPGVGIPGVGVPGYGIPGVGIPGVGIPGVGIPGVGVPGYGIPGVGIPGVGIPGVGIPGVGVPGYGIPGVGIPGVG
modifications: not checked
